Reference: patent US20170369576A1 (UBI US, published 2017)
Several values for one entry are separate records, joined by “and”; a condition that tells them apart may be missing. Equal values may be shown once.

Key:
[1] = biological target: T1, baboon CD4 on CD4 positive T cells (baboon (Papio species), UniProt A0A096MWA4 26-457); experiment: binding to baboon CD4 positive T cells (FIG. 21)
T1 construct: also called baboon CD4+ T cells

[2] = biological target: T2, human CD4, membrane-bound on cells (HPB-ALL cells, blood/PBMC CD4+ T cells, assay target cells) (human, UniProt P01730 26-458); experiment: FACS direct binding to HPB-ALL cells, on ice 1 h, goat F(ab)2 anti-huIgG Fc-FITC; EC50 by % MFI, exp. 3
T2 construct: whole, on cells; Target on human HPB-ALL T-leukemic cells, human blood CD4+ T lymphocytes and CD4+ indicator cells of the neutralisation assays; also called CD4 receptor; surface CD4
Method: (§1) On V-bottomed microplates, aliquots of 2×10⁵ cells in 0.1 mL per well were added, centrifuged, and liquid discarded. […] This step was repeated one more time. The cells from the three incubations (passages) were investigated. […] The cells were washed once and the liquid discarded after centrifugation. To each well, aliquots of 200 μL of binding buffer were added and transferred to microdilution tubes for flow cytometric analysis. The binding intensity (mean fluorescence intensity, MFI), based on an inlet of 5,000 cells per sample, was read on FACS.
(§2) The absolute MFI values were also normalized to % MFI for purpose of between-passage comparison.

[3] = biological target: T2, human CD4, membrane-bound on cells …; experiment: FACS direct binding to HPB-ALL cells, on ice 1 h, goat F(ab)2 anti-huIgG Fc-FITC; EC50 by MFI, mean of 3
Method: as §1, §2

[4] = biological target: T2, human CD4, membrane-bound on cells …; experiment: FACS, fresh blood CD4+ T cells of subject M2; free CD4 sites left by dB4 detected by dB4C7-Alexa (250 ng/mL)
[5] = biological target: T2, human CD4, membrane-bound on cells …; experiment: comparison of IC50 values, competition FACS on HPB-ALL cells
[6] = biological target: T2, human CD4, membrane-bound on cells …; experiment: FACS direct binding to HPB-ALL cells, on ice 1 h, goat F(ab)2 anti-huIgG Fc-FITC; EC50 by MFI, exp. 2
Method: as §1, §2

[7] = biological target: T2, human CD4, membrane-bound on cells …; experiment: comparison of IC50 values of FACS competition (HPB-ALL) and ELISA competition (sCD4/p2704a)
Method: (§3) On V-bottomed microplates, aliquots of 2×10⁵ cells in 0.1 mL per well were added, centrifuged, and liquid discarded. […] The cells were washed once and the liquid discarded after centrifugation. To each well, aliquots of 200 μL of binding buffer were added and transferred to microdilution tubes for flow cytometric analysis. The binding intensity (mean fluorescence intensity, MFI), based on an inlet of 5,000 cells per sample, was read on FACS.

[8] = biological target: T2, human CD4, membrane-bound on cells …; experiment: FACS, fresh blood CD4+ T cells of subject F1; bound dB4 detected by goat anti-hIgG-FITC
From the text: (§4) The samples were calibrated with reference beads for fluorescence reading.

[9] = biological target: T2, human CD4, membrane-bound on cells …; experiment: competition FACS on HPB-ALL cells; inhibition of dB4-Alexa (250 ng/mL)
Method: as §3

[10] = biological target: T2, human CD4, membrane-bound on cells …; experiment: FACS, fresh blood CD4+ T cells of subject F2; free CD4 sites left by dB4 detected by dB4C7-Alexa (250 ng/mL)
[11] = biological target: T2, human CD4, membrane-bound on cells …; experiment: FACS direct binding to HPB-ALL cells, on ice 1 h, goat F(ab)2 anti-huIgG Fc-FITC; EC50 by % MFI, exp. 1
Method: as §1, §2

[12] = biological target: T2, human CD4, membrane-bound on cells …; experiment: FACS, fresh blood CD4+ T cells, mean of six subjects; bound dB4 detected by goat anti-hIgG-FITC
From the text: as §4

[13] = biological target: T2, human CD4, membrane-bound on cells …; experiment: FACS, fresh blood CD4+ T cells of subject M1; free CD4 sites left by dB4 detected by dB4C7-Alexa (250 ng/mL)
[14] = biological target: T2, human CD4, membrane-bound on cells …; experiment: FACS direct binding to HPB-ALL cells, on ice 1 h, goat F(ab)2 anti-huIgG Fc-FITC; EC50 by MFI, exp. 1
Method: as §1, §2

[15] = biological target: T2, human CD4, membrane-bound on cells …; experiment: FACS, fresh blood CD4+ T cells of subject F2; bound dB4 detected by goat anti-hIgG-FITC
From the text: as §4

T1 sequence (A0A096MWA4 entry or part of it limits assumed, form in doubt): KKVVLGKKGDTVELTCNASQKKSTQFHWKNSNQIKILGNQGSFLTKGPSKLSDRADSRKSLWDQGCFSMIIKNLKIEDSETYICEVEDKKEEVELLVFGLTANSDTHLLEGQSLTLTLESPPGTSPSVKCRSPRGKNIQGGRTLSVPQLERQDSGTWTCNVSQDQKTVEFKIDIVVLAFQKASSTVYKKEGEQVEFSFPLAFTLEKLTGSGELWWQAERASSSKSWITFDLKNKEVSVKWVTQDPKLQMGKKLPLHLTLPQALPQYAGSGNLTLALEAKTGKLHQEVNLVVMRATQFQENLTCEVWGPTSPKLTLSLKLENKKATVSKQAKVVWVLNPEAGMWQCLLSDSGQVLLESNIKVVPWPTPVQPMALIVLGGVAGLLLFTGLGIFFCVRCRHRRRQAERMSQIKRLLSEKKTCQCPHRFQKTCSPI

B1: mAb dB4C7 (human deimmunized, Fc-aglycosylated IgG1 derived from murine mAb B4, expressed by clone 7) (antibody, V domains shown)
VH: QVQLVQSGPELKKPGASVKVSCKASGYTFTDYVIHWVKQATGQGLEWIGEIYPGSGSAYSNAKFKDRVTMTADKSSNTAYMELSSLTSDDTAVYFCARRGNGTGFAYWGQGTLVTVSS
VL: DIVLTQSPASLAVSLGQRATITCKAGQSVDYDGDSYMNWYQQKPGQPPKLLIYVASNLESGIPARFSGSGSGTDFTLNIHPVEENDAATYYCQQSYKDPLTFGQGTKLEIKR
modifications: N-glycosylated at Asn101 in the Fv; Fc N-glycosylation site removed (N298H)
notes: treated as one molecule; also called deimmunized B4
EC50 [1]: 0.29 µg/mL | EC50 [2]: 0.0407 µg/mL | EC50 [3]: 0.0422 µg/mL | EC50 [4]: 4.6 ng/mL | fold binding affinity against gp120 MN [5]: ≥ 50 fold | EC50 [6]: 0.0437 µg/mL | fold binding affinity, CD4-positive T cells against sCD4 [7]: > 40 fold | EC50 [8]: 4.7 ng/mL | IC50 [9]: 0.197 µg/mL and 1.8 nM | EC50 [10]: 6.6 ng/mL | EC50 [11]: 0.0424 µg/mL | EC50 [12]: 4.1 ng/mL | EC50 [13]: 4.8 ng/mL | EC50 [14]: 0.0421 µg/mL | EC50 [15]: 5.7 ng/mL
